Substrate in the data set: Nc1ncnc2c1ncn2[C@@H]1O[C@H](COP(=O)(O)OP(=O)(O)OP(=O)(O)O)[C@@H](O)[C@H]1O
Nature of the data set: purified protein. As to conditions: pH 7.0; 25.0 °C.

B1: SOBIR1-KD (Arabidopsis thaliana) (protein)
chain: SIFSPLIKKAEDLAFLENEEALASLEIIGRGGCGEVFKAELPGSNGKIIAVKKVIQPPKDADELTDEDSKFLNKKMRQIRSEINTVGHIRHRNLLPLLAHVSRPECHYLVYEYMEKGSLQDILTDVQAGNQELMWPARHKIALGIAAGLEYLHMDHNPRIIHRDLKPANVLLDDDMEARISDFGLAKAMPDAVTHITTSHVAGTVGYIAPEFYQTHKFTDKCDIYSFGVILGILVIGKLPSDEFFQHTDEMSLIKWMRNIITSENPSLAIDPKLMDQGFDEQMLLVLKIACYCTLDDPKQRPNSKDVRTMLSQIKH
Regarding B1, the Michaelis-Menten constant (Km) is 19.92 ± 0.69 µM and the kcat was determined as 0.660 ± 0.006 s⁻¹.

For orientation: Km means the substrate concentration at which the rate is half of its maximum. Usually kcat stands for the number of substrate molecules converted per active site and unit of time at saturation.
